According to the DeepSol protein solubility set:

Experiment: soluble on expression in E. coli; label from the status in PepcDB or PDB records

Row | Sequence | soluble on expression in E. coli
1 | IFEDEEDQITKVDSLKKEGNNFFANGEFEKANEKYQEAIASCPPTSTEVQSILLSNSAAALIKLRKWESAVEAASKSIEIGATNEKALERRAFAYSNMSEKYENSIEDYKQLQESLPKRRVELDRKIAEINEKINNRNEAMKADVMEKLKGFGNFCLSPFGLSTDSFEMVPNGNGGFSVQMKGATNKQEGAS | not soluble
2 | MGSDKIHHHHHHMPKERVDVLAYKQGLFNTREQAKRGVMAGLVVNVINGERYDKPGEKIDEATELKLKGDKLKYVSRGGLKLEKALKVFVISVDGQITLDIGASTGGFTDVMLQNGAQLVYAVDVGTNQLVWKLRQDERVCSMEQYNFRYAEPSDFERGQPTFASIDVSFISLNLILPALSKILTDGGQVVALIKPQFEAGREQIGKHGIVKDKSVHETVLETVTTFATNYGFTVKELDFSPIQGGHGNIEFLAYLEKSAQAQNQVLTKIKSIVEQAHKEFKKNEET | not soluble
3 | MQAVGLITEYNPLHNGHRYHLRQAQQLTNADCVIVVMSGDWLQRGEPAILDKWTRAKLALENGADLVIELPVFFATQPAHLFARGGIELLSALDCTSVVFGAEHPELDFQRLATAIAARQGSFTHYNATFATQFNAALQAATGVTLTAANDMLSFCYYAANQTLAHPMQLLPIKRRQADHATTTIAADSRYASGTAVRQAALAQDWAALKPVVPADTFTALTTQRLQ | not soluble
4 | MIGIVMLSKIANIDAARQGLDLKVKVLSLNKKTIKNDRGETTYFYGIIGDDTGTVSFTAWSFPAAVKSGDVVEIKNCYSSLYNGKIRIYVDSRSQVVLKPDEYLEVKRTVELVKLRDLSLTTPYVSVIGRISGIKEKNYDSDRGSKIVYQGFIEDETAKVRISSFGKPLKDGEIVRVENARVSQYNGYMGISIGENSSIDNVQAQIEVGSRPIFIAEIKSPIGGVTITGFAVSVGQGSRIFTKCSICKKILEDGKCKDHPRAPVYLDIFGYFLLSDGTGSLTCYLNKDSFLPYIKMDTEEFKSQAFSMNPNMLIKKNILGKCLSVTGDLRLRDDKITMNASSIKEADADSVKDIEKTIQEEFQLEHHHHHH | not soluble
5 | MEGSVSEFLTVRLSSQKEADIPWLVWSAEQQEVIASGQVAGWEALHEIESYADQRSVVVLLAASDLILTSVEIPPGASRQLENMLPYLLEDEIAQDVEDVHFCVLSKGRETADVVGVDRLWLRACLDHLKACGFDVKRVLPDVLAIPRPEHGLAALQLGDEWLVRKSTTQGMAVDAQWLSLLAASDWVQNEGEYLPLQALTPLPELSLAETQEWRYEPSGLVMQLLTQEALTSKFNLLTGSFKLKSLEHHHHHH | soluble
6 | GKPSWLGGGSTQPAQTIPWGIERVKAPSVWSITDGSVSVIQVAVLDTGVDYDHPDLAANIAWCVSTLRGKVSTKLRDCADQNGHGTHVIGTIAALNNDIGVVGVAPGVQIYSVRVLDARGSGSYSDIAIGIEQAILGPDGVADKDGDGIIAGDPDDDAAEVISMSLGGPADDSYLYDMIIQAYNAGIVIVAASGNEGAPSPSYPAAYPEVIAVGAIDSNDNIASFSNRQPEVSAPGVDILSTYPDDSYETLMGTAMATPHVSGVVALIQAAYYQKYGKILPVGTFDDISKNTVRGILHITADDLGPTGWDADYGYGVVRAALAVQAALG | soluble
7 | MLNRNRNVNKQNGHQKQNGAQKSELRGKNAPPYLERETCLGRNDIFVVEKMIAGGGFGQVYRARNTETQEEVAVKVERATTNDSQRMILESKVLDDMLGSKHFPNVYYIGPYHSYNFIVMQMLGKNIGDIRKMMPNKKISILSSVRIGIQIIEALSLLHSKGWLHRDLKPTNCCLGLDEKRKTVYLVDFGMSRKFRNDNGSLRESRTYCGFRGTTRYCSYRMHDRREQGPVDDLWCLYYSLGELIEGCLPWRDIESADEMAHVKKILKHEDIFHSMPSKFASFGRNLRRLRPANTPDYTKFQNILAYCVKFVDDNAEFEWDVMDY | not soluble
8 | MGSDKIHHHHHHMDYPDKMTPAQRAAAKAKGEPADRVACNPNIANGMARIAGYKISQFNDDPEALADAIIKTYRRFGADGARIFTDLFLVSEAMGAKVRKPEDNTADLEEPAINDMSEFDKLKVIDPYTQGRIPVHLRAIEIVRDEIASEVGVTASVVGPFTNAFFLIGVEKMTKMLLKDPESVHKLCEISLQSCIALTDAVLEKGVGVTISEPLSSCTVVSPKHFREFSAPYLKRLIDHIKARTGKLVIHICGITDPIWDDLVEMGVDVLSIDNVADMEKCAETVGDKMVIAGNVDPSAIMYAGSREDVRKATIKCAKQGLKAKKGFMIMSGCSLPVEVPIENIDAMMDTAREMGWPVTEEKLDYLLSFDKYKD | not soluble
9 | MSLTGVLGFYTLEEGPTLPSSFTSFANNTGQLSSTALFMFRISAANPTTIEKFGEFTDQDVRNLVAIAHRNNVKIMPVVHNLLYRPGGTTLAKNVVKTLVSDPRNRNAFALNLVNLIERYGFDGVNIDIEDVFIEDSDNLSLLYTEISEVLRPRGYFFSASVPSRVSDEPFNPFSDPFNYSVIGRAVDEFVVMLYNEFGWPGSPPGPAVTIGWMERVLRYTMSKMPRDKIMAAVSVFGFDFNLTTGRNTYVTYQSAINLARRYNSEIIFNEERQTPMFTYRDAQGNQHEVWFEDARSLRSKIQLAWELGIKGVALWRLGMEDPNIWPMLRNEVVVRKFEGHHHHHH | soluble
10 | MSLSIYSVGRWICRSYFRLFFKVEVIGASRIPDEGGLLLCCNHFSNYDPPFVGSFFPRKVRFMAKEELFRFKPLQSLMMAVGAFPVRRGAGDKQALKVGLKLLKEGETLGIFPEGTRSKDGQIGKGLSGVGFFALRSDATVVPCAIVGKYRFFRKVRFVIGEPVPMEELKERKASAEEATEVIMKAIRKLHEQNQMSEGHHHHHH | soluble
11 | MGSDKIHHHHHHMKLPRFGVEEWLNVHENSAIYDIAGVSISSLTLEELFALSGTNPEDFYKKLQGTKLNYGWIEGSPAFKKSVSQLYTGVKPEQILQTNGATGANLLVLYSLIEPGDHVISLYPTYQQLYDIPKSLGAEVDLWQIEEENGWLPDLEKLRQLIRPTTKMICINNANNPTGAVMDRTYLEELVEIASEVGAYILSDEVYRSFSELDVPSIIEVYDKGIAVNSLSKTYSLPGIRIGWVAANHQVTDILRDYRDYTMICAGVFDDLVAQLALAHYQEILERNRHILEENLAILDQWIEEEPLVSYIRPAVVSTSFVKIAVDMPMEDFCLQLLQEHGVLLVPGNRFERDGYVRLGFACEQETLIKGLEKLSQFLRRFDKEN | not soluble
12 | MSLNHTAVNTAQAIILRDLVDALLFEDIAGIVSNSEITKENGQTLLIYERETQQIKIPVYFSALNMFRYESSQPITIEGRVSKQPLTAAEFWQTIANMNCDLSHEWEVARVEEGLTTAATQLAKQLSELDLASHPFVMSEQFASLKDRPFHPLAKEKRGLREADYQVYQAELNQSFPLMVAAVKKTHMIHGDTANIDELENLTVPIKEQATDMLNDQGLSIDDYVLFPVHPWQYQHILPNVFAKEISEKLVVLLPLKFGDYLSSSSMRSLIDIGAPYNHVKVPFAMQSLGALRLTPTRYMKNGEQAEQLLRQLIEKDEALAKYVMVCDETAWWSYMGQDNDIFKDQLGHLTVQLRKYPEVLAKNDTQQLVSMAALAANDRTLYQMICGKDNISKNDVMTLFEDIAQVFLKVTLSFMQYGALPELHGQNILLSFEDGRVQKCVLRDHDTVRIYKPWLTAHQLSLPKYVVREDTPNTLINEDLETFFAYFQTLAVSVNLYAIIDAIQDLFGVSEHELMSLLKQILKNEVATISWVTTDQLAVRHILFDKQTWPFKQILLPLLYQRDSGGGSMPSGLTTVPNPMVTYDEGHHHHHH | soluble
13 | MSLSDSNDDRPFRPFQSQYRWPGVDLLAYKEEGSAPFRSVTRQVLFSGNGLTGELRYFEVGPGGHSTLERHQHAHGVMILKGRGHAMVGRAVSAVAPYDLVTIPGWSWHQFRAPADEALGFLCMVNAERDKPQLPTEGHHHHHH | not soluble
14 | MSLFPGDIEELARRIITDFTPLGLMVSTAESCTGGLIAGALTEIAGSSAVVDRGFVTYTNDAKRDMLGVGTETLTTFGAVSRQTALQMAHGALYRSRANFAVAVTGIAGPGGGSAEKPVGLVHLATKARNGNVLHHEMRYGDIGRTEIRLATVRTALEMLIALNQAGSV | soluble
15 | MGSDKIHHHHHHMGIENMKICIVSFTKKGYELSCDIAYKLEKSAYEVEVFTKCSRLSDENIKNSTDENYRNTGYISQNISDWTAAQMSEKKALIFIGACGIAVRAIASSVNNKLKDSPVIVIDELGKFVIPILSGHVGGANEFAVLLAALMNATPVITTATDINNKFAVDVFAKKCRLAIVNKDGIARVSSKVLAGEVVTMSVDWEHIPAKHRSLIKAFLDKADMSADAIKTVDFPPAYGADIVVSCEKEKDTKNGSIYLKPTQFVLGIGCRRDTAFENIDRAIRQSLLKLQIDISDIDMIASIDVKKDEPGIKEFCERNRIEFVTYTADELMAVQGEFSASQFVREHVGVDNVCERAAVLACSRECDKAGELIYKKHKYDRVTVAAARYPD | not soluble
16 | MAHHHHHHMGNTVPYNCYERWGKRTPDGPLLNYDPQMPNSGTLSVLLENFDYESTEESNNKCEYIINKEPIEKNNNMNPKVIRNARRRPTYSPTARKINIQSDDEEEDEDDDEKLSTDDSDENISAKDIKDEKIQQYRKTLTKIVKIKTAIFHETVKVTCSKDGKMLEWYKGKNDSDGKKKPIGSFPLNKITSIRTKVDNLKSLEISVSSVHISTYLFTFKTREERESWQNNLESFRKIMSMK | not soluble
17 | MAISKRHIGPYIIRETLGEGSFGKVKLATHYKTQQKVALKFISRQLLKKSDMHMRVEREISYLKLLRHPHIIKLYDVITTPTDIVMVIEYAGGELFDYIVEKKRMTEDEGRRFFQQIICAIEYCHRHKIVHRDLKPENLLLDDNLNVKIADFGLSNIMTDGNFLKTSCGSPNYAAPEVINGKLYAGPEVDVWSCGIVLYVMLVGRLPFDDEFIPNLFKKVNSCVYVMPDFLSPGAQSLIRRMIVADPMQRITIQEIRRDPWFNVNLPDYLRPMEEVQGSYADSRIVSKLGEAMGFSEDYIVEALRSDENNEVKEAYNLLHENQVIQEKLEHHHHHH | soluble
18 | MGKKKSDTASGGAIPEGDNEKGKKIFKQRCEQCHVVNSLQTKTGPTLNGVIGRQSGQVAGFDYSAANKNKGVVWDRQTLFDYLADPKKYIPGTKMVFAGLKKADERADLIKFIEVEAAKKPSA | not soluble
19 | MGSDKIHHHHHHMSELNNQLWASADILRGKMDASEYKNYLLGLVFYKYLSDQELRAVYEEEQGKVAEYPSRDEQFSGLLDWYNDDAAGIREIISKKLGYFIEPDSLFYTFRKKAGEYELHISDIQNAFIELGRQGEHFAGLFDDVDLASTKLGANAQQRNVTITEVIKALDEIDLFGHDGDVIGDAYEYLIGQFAAGAGKKAGEFYTPQAVSKIISEIVAIGQEETAPFHIYDPTMGSGSLMLNIRRFVKNPGQVHYHGQELNTTTYNLARMNLILHNVEQSQMRLRNGDTLDEDWPTDEPYLFNAVVMNPPYSANWSADGKFLSDPRFEQYGKLAPKSKADFSFLLHGFYHLNEKGTMGIVLPHGVLFRGASEGVIRKTLLDMGAIEAVIGLPANIFYGTSIPTVVLILKKNRAKRDVLFIDASKAFEKQKNQNCIRSQDIRKIVDTYKKRSSSPQYAHLADYDEIVRNDYNLNIPRYVDTFEEEAPIDIVALSKEITDLNLQIKQREAEFLGMLSQLAITDETKELIEATKGIFM | not soluble
20 | AHHHHHHGSKVEKYAIIFGKNPELGLYELKAFSKRFKLGVRILEIRFYGPNKSFAIIQAKEEIEKKFKWLGGALKLVRIVGEGLDTIENLEYSKLFTVSLYGKEDWKAWRKLGSQVKAVFKRKDSSKFFKPANVYSMPSELILKGFPEVKDVVFLFVDKDRVLVGETIRITNPFELKKLDVERPIVRPTLSIPPRLARIMINLSEVRKGNVLDPFCGTGTILVELLLQGLIAYGSDISQERINDARKNIEWIRKEFRIKQNASLRVCDVRRLKKCFRTRFDAIITEPYMGRPLKTKPTREEAIKIAKQLDRLYYQAFESFSDVLKRNAKVVFVFPAFNLAEGGVYRRNRPWLEELGFKVEYSILDIDEKHRIGRDIYVIRY | soluble
